Data as given in publication PMC10663207.

What was measured:
[1] = biological target: NMDA receptor subunit GluN2A (rat (endogenous in primary cortical neurons)) (UniProt Q00959); assay: co-IP; precleared lysates (700 µg) of rat primary cortical neurons incubated overnight with protein G-agarose carrying anti-GluN2A or anti-GluN2B; blots for STIM1 and STIM2; control neurons and neurons treated with 50 µM NMDA and 100 µM glycine for 15 min; bands normalised to the precipitated subunit
[2] = biological target: NMDA receptor subunit GluN2B (rat (endogenous in primary cortical neurons)) (UniProt Q00960); assay: as above
Sequence of UniProt Q00960 (Q00960 27-1482): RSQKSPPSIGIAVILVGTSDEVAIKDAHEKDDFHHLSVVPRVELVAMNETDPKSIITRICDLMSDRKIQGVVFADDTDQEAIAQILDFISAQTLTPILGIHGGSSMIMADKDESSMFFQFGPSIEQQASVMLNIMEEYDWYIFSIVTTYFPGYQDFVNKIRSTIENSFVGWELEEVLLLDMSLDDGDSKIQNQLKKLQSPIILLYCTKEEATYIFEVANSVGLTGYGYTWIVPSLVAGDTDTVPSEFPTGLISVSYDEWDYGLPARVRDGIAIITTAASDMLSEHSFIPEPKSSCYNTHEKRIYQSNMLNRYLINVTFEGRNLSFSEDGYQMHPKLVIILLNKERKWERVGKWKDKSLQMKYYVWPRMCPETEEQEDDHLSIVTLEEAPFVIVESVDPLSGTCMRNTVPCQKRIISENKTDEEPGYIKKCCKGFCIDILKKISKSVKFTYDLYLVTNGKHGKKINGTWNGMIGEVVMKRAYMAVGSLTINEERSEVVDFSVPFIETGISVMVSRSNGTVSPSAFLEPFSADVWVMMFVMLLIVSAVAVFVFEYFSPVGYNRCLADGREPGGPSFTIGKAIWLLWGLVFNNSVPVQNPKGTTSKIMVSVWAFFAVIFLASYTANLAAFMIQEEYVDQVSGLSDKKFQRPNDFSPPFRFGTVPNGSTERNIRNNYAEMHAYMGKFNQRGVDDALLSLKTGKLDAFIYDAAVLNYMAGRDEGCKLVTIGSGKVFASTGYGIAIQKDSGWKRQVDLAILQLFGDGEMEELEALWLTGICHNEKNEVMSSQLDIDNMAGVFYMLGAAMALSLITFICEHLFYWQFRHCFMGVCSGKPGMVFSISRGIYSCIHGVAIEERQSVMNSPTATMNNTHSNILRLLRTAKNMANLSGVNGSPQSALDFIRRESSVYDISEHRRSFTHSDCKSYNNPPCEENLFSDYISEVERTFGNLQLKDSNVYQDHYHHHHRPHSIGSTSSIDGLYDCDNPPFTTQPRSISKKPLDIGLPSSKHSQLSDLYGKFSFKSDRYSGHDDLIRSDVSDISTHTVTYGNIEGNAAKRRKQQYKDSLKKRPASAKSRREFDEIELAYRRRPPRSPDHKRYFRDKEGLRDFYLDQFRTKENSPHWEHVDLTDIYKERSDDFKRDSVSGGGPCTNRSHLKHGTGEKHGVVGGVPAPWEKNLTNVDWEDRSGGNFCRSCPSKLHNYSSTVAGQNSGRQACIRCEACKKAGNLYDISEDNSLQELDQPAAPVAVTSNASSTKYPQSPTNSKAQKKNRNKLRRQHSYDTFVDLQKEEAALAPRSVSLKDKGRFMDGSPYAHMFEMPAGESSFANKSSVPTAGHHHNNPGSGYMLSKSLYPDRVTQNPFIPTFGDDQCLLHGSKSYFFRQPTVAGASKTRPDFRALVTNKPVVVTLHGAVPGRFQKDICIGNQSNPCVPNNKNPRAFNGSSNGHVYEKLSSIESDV

Sequence of UniProt Q00959 (Q00959 23-1464): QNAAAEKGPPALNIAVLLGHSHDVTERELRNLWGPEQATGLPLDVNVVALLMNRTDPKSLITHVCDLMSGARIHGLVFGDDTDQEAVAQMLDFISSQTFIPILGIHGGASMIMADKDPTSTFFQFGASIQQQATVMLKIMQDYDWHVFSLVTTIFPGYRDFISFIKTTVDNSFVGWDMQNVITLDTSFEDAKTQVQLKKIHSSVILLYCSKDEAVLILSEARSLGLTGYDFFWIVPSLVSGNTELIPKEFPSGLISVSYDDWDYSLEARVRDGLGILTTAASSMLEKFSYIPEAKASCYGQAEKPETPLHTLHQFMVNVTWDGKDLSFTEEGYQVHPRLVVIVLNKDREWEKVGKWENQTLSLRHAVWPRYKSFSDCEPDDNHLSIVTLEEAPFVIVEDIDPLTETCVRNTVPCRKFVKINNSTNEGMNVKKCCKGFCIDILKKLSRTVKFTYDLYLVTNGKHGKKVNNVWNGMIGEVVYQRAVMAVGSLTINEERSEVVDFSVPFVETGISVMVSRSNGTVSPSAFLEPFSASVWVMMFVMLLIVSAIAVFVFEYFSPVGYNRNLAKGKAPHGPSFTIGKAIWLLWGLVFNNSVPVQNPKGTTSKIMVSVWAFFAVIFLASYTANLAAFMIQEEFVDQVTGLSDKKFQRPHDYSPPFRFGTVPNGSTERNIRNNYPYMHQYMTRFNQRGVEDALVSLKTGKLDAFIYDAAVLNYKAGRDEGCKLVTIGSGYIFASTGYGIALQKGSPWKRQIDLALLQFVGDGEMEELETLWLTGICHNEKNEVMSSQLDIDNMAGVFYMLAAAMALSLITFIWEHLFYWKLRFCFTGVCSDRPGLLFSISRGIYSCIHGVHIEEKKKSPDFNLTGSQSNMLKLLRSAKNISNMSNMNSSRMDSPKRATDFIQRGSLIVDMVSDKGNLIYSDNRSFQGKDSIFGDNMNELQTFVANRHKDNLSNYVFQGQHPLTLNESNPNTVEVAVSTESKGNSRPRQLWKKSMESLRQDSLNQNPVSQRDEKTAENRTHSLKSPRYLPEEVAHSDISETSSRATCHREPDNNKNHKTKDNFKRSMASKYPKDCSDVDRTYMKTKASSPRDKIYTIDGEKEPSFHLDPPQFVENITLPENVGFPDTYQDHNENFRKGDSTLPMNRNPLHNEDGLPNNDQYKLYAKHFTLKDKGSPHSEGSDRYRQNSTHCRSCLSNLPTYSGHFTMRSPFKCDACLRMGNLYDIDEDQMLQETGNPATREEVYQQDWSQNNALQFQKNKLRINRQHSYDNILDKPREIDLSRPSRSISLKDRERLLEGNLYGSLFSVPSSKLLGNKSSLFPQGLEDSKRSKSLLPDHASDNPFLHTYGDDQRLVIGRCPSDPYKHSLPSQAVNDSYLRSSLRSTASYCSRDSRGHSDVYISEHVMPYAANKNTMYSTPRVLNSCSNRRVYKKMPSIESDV

“stromal interaction molecule 2 (STIM2) (natural protein)” showed a co-IP band after NMDA and glycine treatment, percent of control neurons [1] of 340% and a co-IP band after NMDA and glycine treatment, percent of control neurons [2] of 204%.
